Test results as given in patent publication US20260028400A1 (AIMED BIO, published 2026).
Numbering of substitutions follows the chain as printed. Read-outs that look alike come from different tables or passages of the source.

B1: P015042-vc-PAB-MMAE (antibody, IgG1, V domains shown)
VH: EVQLLESGGGLVQPGGSLRLSCAASGFTFSDYAMSWVRQAPGKGLEWVSVISSDGGSIYYADSVKGRFTISRDNSKNTLYLQMNSLRAEDTAVYYCAKDRSRDMEVDFDYWGQGTLVTVSS
VL: QSVLTQPPSASGTPGQRVTISCSGSSSNIGSNYVTWYQQLPGTAPKLLIYDSSQRPSGVPDRFSGSKSGTSASLAISGLRSEDEADYYCGTWDYSLSGYVFGGGTKLTVL
modifications: maleimidocaproyl-valine-citrulline-p-aminobenzyloxycarbonyl monomethyl auristatin E on cysteine sulfhydryls of reduced disulfides; positions not given; average 3.3 drugs per antibody
B2: P015042 (antibody, V domains shown)
VH: B1 VH
VL: B1 VL
B3: P015042v1 (antibody, V domains shown)
VH: B1 VH
VL: B1 VL with S97N
notes: Tested as complete IgG; Parent of the variants P015042v1-1 to P015042v1-6
B4: P015004 (antibody, V domains shown)
VH: EVQLLESGGGLVQPGGSLRLSCAASGFTFSDYAMAWVRQAPGKGLEWVSIIYPGDSETIYSPSFEGRFTISRDNSKNTLYLQMNSLRAEDTAVYYCARDTYWEGYFDLWGQGTLVTVSS
VL: EIVLTQSPGTLSLSPGERATLSCRASQGISNYLAWYQQKPGQAPRLLIYDASNLESGIPDRFSGSGSGTDFTLTISRLEPEDFAVYYCQQYANLPYTFGQGTKVEIK
B5: P015044 (antibody, V domains shown)
VH: EVQLLESGGGLVQPGGSLRLSCAASGFTFSNYAMHWVRQAPGKGLEWVSIIYPDDDTRYNPSFRGRFTISRDNSKNTLYLQMNSLRAEDTAVYYCARDLLYAGDYWGQGTLVTVSS
VL: QSVLTQPPSASGTPGQRVTISCGGNNIESKAVHWYQQLPGTAPKLLIYANNKRPSGVPDRFSGSKSGTSASLAISGLRSEDEADYYCQSYDSNKVVFGGGTKLTVL

Experiments:
[1] = biological target: T1, ROR1 expressed on cell surface (Jeko-1 cell line, AMB-LC-0003T and AMB-LC-0002T patient-derived lung cancer … (human, UniProt Q01973 30-937)); experiment: cell-based or functional assay
T1 sequence (Q01973 30-937): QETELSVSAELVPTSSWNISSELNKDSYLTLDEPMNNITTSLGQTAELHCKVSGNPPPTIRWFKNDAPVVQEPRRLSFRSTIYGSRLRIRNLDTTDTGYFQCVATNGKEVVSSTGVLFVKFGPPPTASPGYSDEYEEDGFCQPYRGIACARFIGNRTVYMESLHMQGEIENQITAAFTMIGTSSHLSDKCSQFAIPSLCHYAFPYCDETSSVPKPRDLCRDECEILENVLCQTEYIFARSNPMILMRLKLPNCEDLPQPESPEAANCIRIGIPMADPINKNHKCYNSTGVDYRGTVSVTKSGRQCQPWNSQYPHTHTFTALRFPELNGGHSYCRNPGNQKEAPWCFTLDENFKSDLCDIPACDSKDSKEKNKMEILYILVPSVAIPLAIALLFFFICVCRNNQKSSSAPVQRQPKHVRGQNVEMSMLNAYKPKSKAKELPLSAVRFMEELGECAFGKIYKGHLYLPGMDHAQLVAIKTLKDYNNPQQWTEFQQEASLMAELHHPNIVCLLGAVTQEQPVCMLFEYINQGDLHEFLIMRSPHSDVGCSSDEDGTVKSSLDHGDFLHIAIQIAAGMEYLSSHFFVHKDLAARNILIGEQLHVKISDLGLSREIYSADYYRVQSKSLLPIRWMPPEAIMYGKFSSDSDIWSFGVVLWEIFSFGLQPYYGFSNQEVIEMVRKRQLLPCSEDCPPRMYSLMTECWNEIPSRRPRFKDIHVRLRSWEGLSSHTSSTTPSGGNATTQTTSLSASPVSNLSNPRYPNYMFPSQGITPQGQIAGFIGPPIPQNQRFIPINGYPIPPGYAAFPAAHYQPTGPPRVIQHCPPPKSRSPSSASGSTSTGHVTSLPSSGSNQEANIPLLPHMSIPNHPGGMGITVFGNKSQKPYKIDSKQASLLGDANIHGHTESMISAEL

[2] = biological target: T1, ROR1 expressed on cell surface (Jeko-1 …); experiment: cell-based or functional assay; remark: listed apart in the source
[3] = biological target: T1, ROR1 expressed on cell surface (Jeko-1 …); experiment: cell-based or functional assay; remark: listed apart in the source
[4] = biological target: T1, ROR1 expressed on cell surface (Jeko-1 …); experiment: flow cytometry on Jeko-1 cells
Experimental: (§1) Before therapeutic use of anti-ROR1 antibodies, it is very important to determine whether the antibody binds to the antigen expressed on the cell surface. The cell binding ability of anti-ROR1 antibodies developed by the present inventors was measured using FACS in Jeko-1 cell line and AMB-LC-0003T patient-derived cells, which were confirmed to have high ROR1 expression. Each cell type was dispensed at 1×10⁵ cells/100 μl FACS buffer per well in a 96-well plate.
(§2) Cell binding ability analysis was performed using anti-ROR1 candidate antibodies P015004, P015042, P015043, P015044, P015042v1 with improved biological and physical properties, and P015042v1-6, one of modified materials thereof. Each antibody was serially diluted 10-fold from 100 nM to 10 nM, 1 nM, 100 pM, 10 pM, and 1 pM and the cells were treated therewith. After reaction at 4° C. for 30 minutes, washing was performed twice. PE-labeled goat anti-human IgG Fc PE (ThermoFisher; 12-4998-82) as a secondary antibody was diluted at a ratio of 1:100 in FACS buffer, and 100 μl thereof was dispensed per well. Reaction again at 4° C. for 30 minutes and washing twice were performed. Finally, 100 μl of FACS buffer was dispensed per well, followed by mixing well with a pipette and then flow cytometry using a NovoCyte flow cytometer (Agilent). Analysis was performed using GraphPad Prism 9.3.1, and EC₅₀ values were obtained using a log (agonist) vs. response-Variable slope nonlinear graph model.

[5] = biological target: T2, mouse ROR1 (mouse, UniProt Q9Z139 30-403, limits assumed); experiment: SPR (Biacore 3000), mouse ROR1 on CM5 chip, IgG injected, 1:1 Langmuir
T2 construct: also called mouse ROR1 protein
T2 sequence (Q9Z139 30-403 limits assumed): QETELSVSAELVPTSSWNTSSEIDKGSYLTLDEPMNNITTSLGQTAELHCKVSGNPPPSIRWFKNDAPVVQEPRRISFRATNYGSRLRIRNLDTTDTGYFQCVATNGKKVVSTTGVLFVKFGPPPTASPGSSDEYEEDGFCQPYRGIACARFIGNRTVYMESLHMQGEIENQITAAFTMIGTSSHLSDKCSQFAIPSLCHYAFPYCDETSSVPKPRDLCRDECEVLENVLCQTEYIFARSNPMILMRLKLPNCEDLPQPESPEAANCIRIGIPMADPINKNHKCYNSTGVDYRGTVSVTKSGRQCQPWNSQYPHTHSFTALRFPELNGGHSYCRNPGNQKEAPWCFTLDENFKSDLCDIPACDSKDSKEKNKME
Experimental: (§3) To more quantitatively analyze the binding ability of the anti-ROR1 antibody to ROR1, SPR (surface plasmon resonance) was performed. A Biacore 3000 device (GE Healthcare) was used. Using the amine coupling method, human ROR1 or mouse ROR1 was diluted with 10 mM sodium acetate, pH 4.5 and immobilized on a CM5 sensor chip (GE Healthcare) at 300 response units (RU). The activated portion remaining on the surface of the sensor chip was deactivated by adding 1 M ethanolamine-HCl (pH 8.5).

[6] = biological target: T3, Ig-like (human, UniProt Q01973); experiment: ELISA, IgG on coated domain, OD450
T3 construct: Ig-like domain, His tag; also called Ig-like domain; human ROR1-immunoglobulin domain
T3 sequence (Q01973 39-151 limits assumed): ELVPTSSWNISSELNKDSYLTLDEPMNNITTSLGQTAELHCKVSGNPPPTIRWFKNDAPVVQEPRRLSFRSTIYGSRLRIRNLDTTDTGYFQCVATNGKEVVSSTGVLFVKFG
Experimental: (§4) ELISA was performed to analyze the binding domain using the IgG antibody of the selected clone.
(§5) After washing with PBST and distilled water, binding at room temperature for 1 hour using a goat-derived HRP-conjugated anti-human antibody (Invitrogen, 31482, Goat anti-Human IgG F(ab′)₂ Secondary Antibody, HRP) and then washing again using PBST and distilled water were performed. After color development by adding TMB substrate solution (Thermo Scientific, 34029, 1-Step™ Ultra TMB-ELISA Substrate Solution), the color reaction was stopped with stop solution (Invitrogen, SS04, ELISA Stop Solution), and the absorbance was measured at OD 450 nm. The anti-ROR1 antibody clone binding to each domain was analyzed through ELISA (FIG. 3).

[7] = biological target: T4, FZD+KRD (human, UniProt Q01973); experiment: ELISA, IgG on coated domain, OD450
T4 construct: frizzled plus kringle domains, His tag; also called FK domain; human ROR1-frizzled-kringle domain
T4 sequence (Q01973 165-395 limits assumed): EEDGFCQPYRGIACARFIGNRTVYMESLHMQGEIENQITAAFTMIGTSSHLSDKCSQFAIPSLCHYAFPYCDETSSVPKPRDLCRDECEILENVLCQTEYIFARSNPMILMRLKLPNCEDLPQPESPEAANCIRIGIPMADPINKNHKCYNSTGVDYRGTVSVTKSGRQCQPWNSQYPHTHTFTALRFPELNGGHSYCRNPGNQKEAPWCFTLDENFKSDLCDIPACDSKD
Experimental: as §4, §5

[8] = biological target: T5, FZD (human, UniProt Q01973); experiment: ELISA, IgG on coated domain, OD450
T5 construct: frizzled domain, His tag; also called Frizzled domain; human ROR1-frizzled domain
T5 sequence (Q01973 165-305 limits assumed): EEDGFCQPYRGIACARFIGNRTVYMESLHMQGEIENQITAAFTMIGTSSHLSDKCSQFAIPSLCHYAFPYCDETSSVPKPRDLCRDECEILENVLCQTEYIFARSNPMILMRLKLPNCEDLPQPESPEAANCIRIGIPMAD
Experimental: as §4, §5

[9] = biological target: T6, Ig+FZD (human); experiment: ELISA, IgG on coated domain, OD450
T6 construct: Ig-like plus frizzled domains, His tag; also called IF domain; human ROR1-immunoglobulin-frizzled domain
T6 sequence (Q01973 30-305): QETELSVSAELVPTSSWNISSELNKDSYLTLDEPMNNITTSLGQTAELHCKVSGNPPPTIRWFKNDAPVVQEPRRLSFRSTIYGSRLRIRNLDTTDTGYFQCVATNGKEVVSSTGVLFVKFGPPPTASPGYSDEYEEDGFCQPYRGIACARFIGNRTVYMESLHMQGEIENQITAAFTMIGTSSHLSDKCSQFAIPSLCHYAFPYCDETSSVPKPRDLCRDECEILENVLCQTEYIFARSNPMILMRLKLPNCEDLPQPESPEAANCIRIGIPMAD
Experimental: as §4, §5

[10] = biological target: T1, ROR1 expressed on cell surface (Jeko-1 …); experiment: flow cytometry on AMB-LC-0003T patient-derived lung cancer cells
Experimental: as §1, §2

[11] = biological target: T7, human ROR1 (human, UniProt Q01973 30-403, limits assumed); experiment: SPR (Biacore 3000), human ROR1 on CM5 chip, IgG injected, 1:1 Langmuir
T7 construct: also called human ROR1 protein
T7 sequence (Q01973 30-403 limits assumed): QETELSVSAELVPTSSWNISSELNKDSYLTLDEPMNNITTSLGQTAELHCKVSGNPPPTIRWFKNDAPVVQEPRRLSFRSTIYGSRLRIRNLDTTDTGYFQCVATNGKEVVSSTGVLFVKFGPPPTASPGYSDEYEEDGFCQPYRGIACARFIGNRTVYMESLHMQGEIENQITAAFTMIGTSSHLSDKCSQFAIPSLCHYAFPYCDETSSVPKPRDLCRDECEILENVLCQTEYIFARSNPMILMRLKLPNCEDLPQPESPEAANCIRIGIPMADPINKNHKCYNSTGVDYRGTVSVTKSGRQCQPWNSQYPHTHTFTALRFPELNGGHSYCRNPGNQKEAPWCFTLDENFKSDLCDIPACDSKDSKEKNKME
Experimental: as §3

Row | Binder | Fold Change of IC50, AMB-LC-0002T/AMB-LC-0003T [1] [fold] | IC50 (nM), spheroid volume, AMB-LC-0002T (low ROR1 expression) [1] [nM] | IC50 (nM), spheroid volume, AMB-LC-0003T (high ROR1 expression) [1] [nM] | Fold Change of IC50, AMB-LC-0002T/AMB-LC-0003T [2] [fold] | IC50 (nM), spheroid volume after 6 days of treatment, AMB-LC-0003T (high ROR1 expression) [2] [nM] | IC50 (nM), spheroid volume, AMB-LC-0002T (very low ROR1 expression) [2] [nM] | IC50, spheroid volume, AMB-LC-0002T (low ROR1 expression) [3] [nM] | EC50 [4] [nM] | Kd [5] [nM] | koff [5] [s⁻¹] | kon [5] [M⁻¹ s⁻¹] | EC50 (read off the curve) [6] [nM] | binding result [7] | binding result [8] | EC50 (read off the curve) [9] [nM] | EC50 [10] [nM] | Kd [11] [nM] | koff [11] [s⁻¹] | kon [11] [M⁻¹ s⁻¹] | binding result [6]
1 | B1 | 81.4 | 187 | 2.3 | 56.3 | 2.88 | 162 | ≥ 100 | – | – | – | – | – | – | – | – | – | – | – | – | –
2 | B2 | – | – | – | – | – | – | – | 0.081 | 0.102 | 0.000176 | 1.72e+06 | ~7 | no binding (tested: 300 nM) | no binding (tested: 300 nM) | ~0.4 | 0.15 | 0.17 | 0.000239 | 1.41e+06 | –
3 | B3 | – | – | – | – | – | – | – | 0.014 | 0.175 | 0.00034 | 1.94e+06 | – | – | – | – | 0.16 | 0.172 | 0.000278 | 1.62e+06 | –
4 | B4 | – | – | – | – | – | – | – | 8.16 | 0.328 | 0.00269 | 8.18e+06 | – | no binding (tested: 300 nM) | no binding (tested: 300 nM) | ~3 | 4.6 | 0.325 | 0.00343 | 1.06e+07 | no binding (tested: 300 nM)
5 | B5 | – | – | – | – | – | – | – | 0.13 | 1.21 | 0.00202 | 1.67e+06 | – | no binding (tested: 300 nM) | no binding (tested: 300 nM) | – | 1.78 | 3.08 | 0.00382 | 1.24e+06 | –
